Assay: label from the status in PepcDB records
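Also: failed if final PepcDB status was selected cloned or expressed and not failed if soluble or beyond.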

MRDRGDKPAEAGLGLTQTRQEDPAAMIDLYYAPTPNGWKISIMLEECGLPYKVVPMQLGRGDQHQPGFLKLSPNGRMPAIVDHAPIGGGAPLSVFESGAILIYLAEKSGQLMPTETRARFEVMQWLMWQMAGLGPMLGQNGHFLLYAPEKIPYAIDRYSREAKRLYGVLDQRLADRACIAGDYSIADIACFPWIMTHKAQGLTLDDYPNIKRWYAALRARPKLQAGLALGKEDKKPMDEQARKLLFGVDKPAHADAQAQSAQQQ
protein production: not failed

MSDLRTVPKHTALLIGLMIFGLFFGAGNLIFPVELGRLAGHSAPVTAAGFLVTAVGIPIVAIISSAVSGCSSVHGMTSRVSSQYATIFTCLLYLTIGPAFAIPRTATVSYEVGVAPFIQGHGPALPIFTIVFFAMTLVAALKPGKLMDWVGRYLTPLFLALLAILIVATLIHPMPTVANRPPQPPYDHQPFMHGFLDGYNTMDALASLAFAIVIIEAINQRGSTGRRDVTHITIRAGLVATIPLTLVYVSLAWLGRTSTLVVPNAANGGVVLAGVSRHYYGTAGQVLIAAIVLVACLKTAIGLVVACAEIFRRMFPAGPSVRSWVVIFSVASAIIANAGLTTIIAWSTPVLMFLYPLAITAIILGLLDPWLGASRLPHRIMTGCVVLAALPDLVRALPIQGSGTRAITHVADMVLPWASDGLGWGLPAIIGLAAGWGASLILGRPRRWGTSS
protein production: failed

MDLPITLSKETPFEGEEITVSARVTNRGAAEAHNVPVAVYLGNPAQGGVEIGRDTISRIPVGGTGLARVQWKATRKLAGRAANPGVPVYAVVDPDNRVAESDKANLEHHHHHH
protein production: not failed

MSYVDISYYKDNFKGDILNDDTLENRLERASDQIDKLTYNRIIGVEFKNLSPFQQDKIKKAVCLQAEFIEQYGEFINMPLSGFSAGSTSVSFNGSIVNGITTTQEVINYIYQTGLNSRRILEHHHHHH
protein production: failed

MNSIVSTVRGILTLSRSETFDSPRDEAKSDLKVLSVAWNQVCSGFIVGTNHGFNVYSCKPMIKKSISRAPHESGFKVAEMLFLSNLFAFVGNGYNNSEYPPNKVFVWDDYRNCCLSELTFKSEVIAVKLAREHVVVVLKQNIYVYTFNNLKVDRVIETLMNPKGLCCVTHVESKAVLACPGFHPGQVQVHDLRWNVIKFIKAHDSAIACMTLTLDGSLLATASTKGTLIRIFNAVDGTLLQEFRRGVERAEIYNVAISSNLKWVAASSEKGTLHVFRLRPDILSFDPASSSSFIRVILPKYLYENERSFAQFSLPASTKFIVGFGSENTVLLVGIDGSFRRCKFDHADGGQMVELEHKYFFSLQETGNTMVGGV
protein production: failed

MVYFYPINDSRWYTFIHLFLYCKALKLLVVPNSKGVSPIFNQITIHNQHTENWLIIGLFCGAFVTGADAFIISALLPAIATSLHVPTNTAAYGVTVYALCYAIGAPLFGPLGDRFNKRFLLIRGCGIFLLGTLLCGLANSLLTFYLYRAIAGIGAALFVPNIWAFIGTYFNGQRLNQVMGIVMSALSLSIATGVPLGALLAQLSSWHMAFWGSAMLTLIALSILTIAIPSLPSQNAQPDGYFTSFKTLVHTPHAIAALLITLTWMTGFYGVYTFLGVFATATFHFNTMQTGLIFITYGSANFVASFFAGKLISLLGKKQSVTINGLVSATLVLSLGIWGQHLAVLLIILVVLALSQGWGVTALTATIVNIVPSNRSTIMSFNSAFLYYGLTLGSAAGGLLLTKIGFYAVTIAAATALLVAVLIANALSHYSD
protein production: failed

MPNTPWSATSQNLGQDFHNWSGGLRFRPSRLDVPEDEETVAALVRAAARQGRSIRPVGSAHSSSEIYVTDDILVSMAGICGLREHDAQHHRATVGAGSQLTELSKELQAAGMTLSNFGDVATQTVGGAIGTGTHGSGRDFPNLSMMLVGGRLVTAGGEIRTFDVEEEPDFVRALRVSFGTLGILTWTTLKLEPLHDLHRQEWCLAFEPCMEVLDKLSRENRNFDFYWYPRSDEVKIRCLNPPGEEKDYGAFARLAKDETGPPHEVIPQHSDLPHRFEEMEYSMPAEAGPECLGKLRARIKERWRRSVGWRLLFRYIKADDSWLSEAYGRDSVSISLHQNATLPYWDFFLDLEPIMRDHGGRPHWAKKHSLRAAELRPLYPMWDRFLALRQEMDPGGRFLTRYLRGLLGC
protein production: failed

MTTKNMNTPPGSTQENEIDLLRLVGELWDHRKFIISVTALFTLIAVAYSLLSTPIYQADTLVQVEQKQGNAILSGLSDMIPNSSPESAPEIQLLQSRMILGKTIAELNLRDIVEQKYFPIVGRGWARLTKEKPGELAISWMHIPQLNGQDQQLTLTVGENGHYTLEGEEFTVNGMVGQRLEKDGVALTIADIKAKPGTQFVLSQRTELEAINALQETFTVSERSKESGMLELTMTGDDPQLITRILNSIANNYLQQNIARQAAQDSQSLEFLQRQLPEVRSELDQAEEKLNVYRQQRDSVDLNLEAKAVLEQIVNVDNQLNELTFREAEISQLYKKDHPTYRALLEKRQTLEQERKRLNKRVSAMPSTQQEVLRLSRDVEAGRAVYLQLLNRQQELSISKSSAIGNVRIIDPAVTQPQPVKPKKALNVVLGFILGLFISVGAVLARAMLRRGVEAPEQLEEHGISVYATIPMSEWLDKRTRLRKKNLFSNQQRHRTKNIPFLAVDNPADSAVEAVRALRTSLHFAMMETENNILMITGATPDSGKTFVSSTLAAVIAQSDQKVLFIDADLRRGYSHNLFTVSNEHGLSEYLAGKDELNKVIQHFGKGGFDVITRGQVPPNPSELLMRDRMRQLLEWANDHYDLVIVDTPPMLAVSDAAVVGRSVGTSLLVARFGLNTAKEVSLSMQRLEQAGVNIKGAILNGVIKRASTAYSYGYNYYGYSYSEKE
protein production: failed

MMFDFDKIIERQSDKCRKWDHAFVCSRFGDVPESFIPLWIADMDFTSPPAVIDGFRRIVEHGTFGYTWCFDEFYDAVIAFQRKRHQVEVEKSWITLTYGTVSTLHYTIQAYCKPGDSVMMNTPVYDPFAMAAQRQGVQVLANPLRVEENRYQLDFNLIEEQLKTYRPTLWFFCSPHNPSGRIWREEEIRQVSDLCQRYGTILVVDEVHAEHILDGKFVSCLTSGCAAQDNLIVLTSPNKALKLGGLKTSYSMIPDDSLRQRFRQQLEKNSITSPNLFGVWGIILAYQHGLPWLDALNDYLQGNARYLADALQTHFPAWKMMTPESSYLAWIDVSADESSATQLTQHFARQAGVVIEDGSHYVQNGENYLQINFGSQRYWLERSTNRMQ
protein production: failed

MPNTNPVAAWKALKEGNERFVAGRPQHPSQSVDHRAGLAAGQKPTAVIFGCADSRVAAEIIFDQGLGDMFVVRTAGHVIDSAVLGSIEYAVTVLNVPLIVVLGHDSCGAVNAALAAINDGTLPGGYVRDVVERVAPSVLLGRRDGLSRVDEFEQRHVHETVAILMARSSAISERIAGGSLAIVGVTYQLDDGRAVLRDHIGNIGEEV
protein production: not failed

MNRKMFGELISEAIAMFIIIALGESAAAMYILYDPSPYQNAYWGLCICWGLAVTIAIYVTASVSGTHANPAVTLALALYRGFPWKKVLPYWAAQVIGAFIGAMIVYQLYSPVIDYYNHIHQLTRDAGGAAGVFFTSTGMAITPIHALGDEIILTAFLVFGIFAITERFNEAAPTANSGALVIGLLVATIGACMGYLEGWAINPARDLGPRLFAFLAGWGESAFPGKDHYWWIPIIGPLIGGVMGATAFQCLIYPFLPARVQAKQQAAILLHRKHP
protein production: failed

MKNEPIYNLLNSINSPDDLRRLEVDQLPEVCDELRQDIIKELSCNPGHFAASLGTVELTVALHYVYNTPYDRIVWDVGHQAYGHKILTGRREAFSTNRKLGGIRPFPSPEESEYDTFTCGHASNSISAALGMAVAAAKKGDDQRHVIAIIGDGSMSGGLAFEGLNNSSTTPNNLLIILNDNDMAIDRSVGGMKQYLFNLTTSNRYNQLRFKASRLLFKLGILNDERRKALIRFGNSLKSMAAQQQNIFEGMNIRYFGPIDGHDIKNLSRVLRDIKDLKGPKILHLHTIKGKGFAPAEKHATEWHAPGKFDPVTGERFVANTEGMPPLFQDVFGNTLVELAEANPRIVGVTPAMPSGCSMNILMSKMPKRAFDVGIAEGHAVTFSGGMAKDGLQPFCNIYSSFMQRAYDNIIHDVAIQNLPVVLCLDRAGLVGEDGPTHHGAFDMAYLRPIPNLTIASPMNEHELRRLMYTAQLPDKGPFVLRYPRGRGVLVDWKCPLEEIPVGKGRKLKDGKDIAVISIGPIGNKARSAIARAESESGRSIAHYDLRFLKPLDEELLHEVGRTFRHIVTIEDGTIQGGMGSAVLEFMADHEYTPTVKRIGIPDKFVQHGTVAELYQLCGMDEDSLTKELLKQCELLPDMSKIKELTN
protein production: failed

MRALALICVVWVCWRESCARHGTEDSSESGLRYAYTLVVDGTANTRRCFGTGHVDGEAFVGYSNNKTHGIGRWVNASHVEEENKEFVRQCKELQAELDKMQNNSKVIGVKTVQLDVGCTSKIEKHYAYDGNETEDDTATSASERDRDCQKKLTEYRKLVLASAVSPQLEVERRSSGREGGMRLRCFARDYYPADLEIRWWKDDGGGGALPQTSKQHHDPLPSGNGLYQKHIDVYVDGGLEHVYSCRVKGIATGLELQIVRWKGYARGAGNSVVLLALFIPASVMAAVVVGSVLIRKKSKEQRKTRRRFGRRSGHEPKRPSYQVKRRAEPPCDLPMTIWFRGDNVMSTQVEACPAYAVTMSARELSDAWSNGDGPIVTVPDPSI
protein production: not failed

MVESKRTWKEKVHVESQVEERLRKNLTLKSREATKLQKKALKTTKKEFKLSKKNYKQSLKKHKLTLKTGKEPLSINHLLDKKKFVEQKKRKKAQKIAYKRTKKVDETRVVNQVKRETKEGLKREATQKVRTTLTQEDTLNEAMTLYEKTQQAKFNMRTALKTGKTVKNLSVKTAKDTYGLGNRLFNFSRGRGFQRTPKDFTLKKQLMKQLRNRAMRFKAAKEAKKAEQGIGLIRSFFNGQKTLGKVAALILKNPISWVVLLVLFLVFLLSGVASSTQKPAIVQEEEDLTASWTYFTKLDAQHTDDNNLFYSNIDDVLFYMNYRYDDFKLLDMDSTGTKNFETILSELWTALNGKKPDYQLKTMQSLETDKKSSYFIEEEQAKHYQEIKKELGYQTLDDLLSFPVKTDALIVNKRYGYDKSKEKLTLYKGIDVLIEDNQPFHSPMNGQIVSVPDTETLVIEKEKVARLTIRGVNTLRLTKGMDVEEGTFLGNTKNSTVTFQYEKYKKETKDWFFVNPAFYFPRVTYTQTTLLGSAEFSPGASVEKRAQAVYDYLSKKGYTKEGISAILGNFSVESGINPKRAEGDYLNPPVGAHGNSWDEPSWLAMGGPQIYGGRFPNILHRGLGLGQWTDTADGGRRHTLLLDYAKGKNKKWYDLQLQLDFIFDGDAPGSRTAADNVARSKVAATIPELTTYYLTVWEGNPGDKLGERIQAAQNWFTFFSRSGTPIGGSGSEVFAQYKEKMQPLPTDRETKAGQGWPGNAYAPGNCTWYVFNRFAQLGKSIYPTMGNANQWVHNYSQTPGATLESAPKKGDAVIFTNGVAGSSTQYGHVAYVEHVNSDGSFVISEMNVSGEYSMNWRVLKKEAGEYFMRLN
protein production: failed

MREPVDLRRQRILAAVQARGTARVRDLADELQVSVVTVRRDVEELTREGRLSRGHGVVRSTLPARESAPEAVPAAGDRVAVVVPVRHSYLTETLHGARTVLERAGVRMALHLAPQASGAERPLVERALADGADGLLIAPRWRGRADEEADHEWLAGTGVPTVLMERRPWRGSALHALDSVCSDHWYGAHLAVEHLVGLGHRRIVVATRHDSPTARSLRAAFTEIAGAHPLVERWAWTLVAPEAGADGPYSADETAEPPALMRKVGATAMVLHGDVDALMVVQRLAEEGVRVPEDCSVVAYDDVVAGLAAPPLTAVSPPKAEVGHTAAELLLQRLTEAPGGRRPGRRVELLPRLMVRGSTDRSVEPLDE
protein production: failed

MGHHHHHHSHMRPELEDSTLRYLQDLLAWVEENQHRVDGAEWGVDLPSVEAQLGSHRGLHQSIEEFRAKIERARSDEGQLSPATRGAY
protein production: failed
